# Laboratory results reported in publication PMC9798946, “Properties and Activity of Peptide Derivatives of ACE2 Cellular Receptor and Their Interaction with SARS-CoV-2 S Protein Receptor-Binding Domain” (Doklady. Biochemistry and Biophysics, 2022).
# Where two headings read alike, the source gives them in different places.
# What was measured:
# [1] = Degree of α-helicity by circular dichroism (CD) spectroscopy; type: physicochemical
# [2] = target: T1, SARS-CoV-2 S protein RBD RBD (Severe acute respiratory syndrome coronavirus 2), P0DTC2; conditions: modification not given
# [3] = target: T1, SARS-CoV-2 S protein RBD RBD (Severe …); conditions: modification not given; remark: listed apart in the source
# [4] = target: T1, SARS-CoV-2 S protein RBD RBD (Severe …); conditions: modification not given; remark: listed apart in the source
# [5] = target: T1, SARS-CoV-2 S protein RBD RBD (Severe …); conditions: modification not given; remark: listed apart in the source
# [6] = target: T1, SARS-CoV-2 S protein RBD RBD (Severe …); conditions: modification not given; remark: listed apart in the source
molecule,measurement,setting,value
CC[C@H](C)[C@H](N)C(=O)N[C@@H](CCC(=O)O)C(=O)N[C@@H](CCC(=O)O)C(=O)N[C@@H](CCC(N)=O)C(=O)N[C@@H](C)C(=O)N[C@@H](CCCCN)C(=O)N[C@H](C(=O)N[C@@H](Cc1ccccc1)C(=O)N[C@@H](CC(C)C)C(=O)N[C@@H](CC(=O)O)C(=O)N[C@@H](CCCCNC(=O)CCS)C(=O)N[C@@H](Cc1ccccc1)C(=O)N[C@@H](CC(N)=O)C(=O)N[C@@H](Cc1c[nH]cn1)C(=O)N[C@@H](CCC(N)=O)C(=O)N[C@@H](C)C(=O)N[C@@H](CCC(=O)O)C(=O)N[C@@H](CC(=O)O)C(=O)N[C@@H](CC(C)C)C(=O)N[C@@H](Cc1ccccc1)C(=O)N[C@@H](Cc1ccc(O)cc1)C(=O)N[C@H](CCCCN)C(=O)O)[C@@H](C)O [h1–Mpa],"α-Helicity, H2O",[1]; solvent H2O,6.0%
same,"α-Helicity, TFE",[1]; solvent trifluoroethanol (TFE),85.3%
same,"α-Helicity, WEM",[1]; solvent water–ethanol mixture (WEM),37.8%
DKWSAFLKEQSTIAQMYPLQECI [h2 (67-89)],Kd,[2],2580 nM
same,Kd,[3],40000 nM
NCGDKWSAFLKEQSTLAQMYPLQE [900h2 (64-87)],Kd,[4],7220 nM
same,Kd,[5],1700 nM
IEEQAKTFLDKFNHQAEDLFYK [h1-Mpa (21-42)],Kd,[6],1070 nM
